# The nanobody polyreactivity screen of Harvey et al. (2022)
# Assay: yeast display, Sf9 membrane polyspecificity reagent, FACS + sequencing; frameworks hold sequencing errors
# Summary of the method: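 Synthetic nanobody libraries on Saccharomyces cerevisiae BJ5465 were galactose-induced for 36–48 hours, stained 1 hour at 4 °C with 10% biotinylated, detergent-solubilized Sf9 membrane reagent and enriched on streptavidin microbeads. FACS then separated cells into low and high (top ~1%) gates by anti-HA (expression) and streptavidin (reagent binding) fluorescence. Genes were colony-PCR amplified, MiSeq 2 × 250 sequenced and CDR-length filtered. A clone's polyreactivity label is that of its gate of origin.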
row,Sequence,polyreactivity (PSR sort gate)
1,QVQLVESGGGLVQAGGSLRLSCAASGITLTKNAMGWYRQAPGKERELVAGITRGSRTNYADSVKGRFTISRDNAKNTVYLQMNSLKPEDTAVYYCAASYGPYRGPVGGSKMYYWGQGTQVTVSS,high polyreactivity
2,QVQLVESGGGLVQAGGSLRLSCAASGSTFVYNAMGWSRQAPGKERELVAVITYRGGRTYYADSVKGRFTISRDNAKNTVYLQINSLKPEDTAVYYCAKRVYGSKVRGYDYWGQGTQVTVSS,high polyreactivity
3,QVQLVESGGGLVQAGGSLRLSSAASGSNFWYYAMGWYRQSPGKERELVAAISAISGTTYYADSEKGRFTISRDNAKNTVYLQMNSLKPEDTAVYYCNKDASWWTDRSYDYWGQGTQVTVSS,low polyreactivity
4,QVQLVESGGGLVQAGGSLRLSCAASGFIFRINAMGWYRQAPGKERELVAAITSSGGSTYYADSVKGRFTISRDNAKNTVYLQMNSLKPEDTAVYYCAASRPRPPSSRRMDYWGQGTQVTVSS,high polyreactivity
5,QVQLVESGGGLVQAGGSLRLSCAASGSTFSSYVMGWYRQAPGKERELVAGITRGGRTYYADSVKGRFTISRDNAKNTGYLQMNSLKPEDTAVYYCAKDQGGVHELDYWGQGTQVTVSS,low polyreactivity
6,QVQLVESGGVLVQPRGSLRLICAASGSTLAGNAMGWYRQAPGKEREFVAAISWSGGRTYYADSVKGRFTISRDNAKMTVYLQMNRMKPEDTAVYYCAARRGQTRYQYYYWGQGTQVTVSS,high polyreactivity
7,QVQLVESGGGLVQAGGSLRLSCAASGRIFAVNAMGWYRQAPGKERELVASIRWSGGSTYYADSVKGRFTISRDNAKNTVYLQMNTLKPEDTAVYYCNKVRGKTYYGEGDYWGQGTQVTVSS,high polyreactivity
8,QVQLVESGGGLVQAGGSLSLSCAASGSTFYENAMGWYRQAPGKERELVAAITWSGGRTYYADSVKGRFTISRDNAKNTVYLQMNSLKPEDTAVYYCNARARSRKFYYWGQGTQVTVSS,high polyreactivity
9,QVQLVESGGGLVQAGGSLRLICAASGLTYVSYAMGWYRQAPGKERELVAGITSGGGTTDYADSVKGRFTISRDNAKTTVYLQMNSLTPEDTAVYDCNARSVYDGFWYNYWGQGTQVTVSS,high polyreactivity
10,QVQLVESGGGLVQAGGSLRLSSAASGGIFRYYAMGLYRQAPGKERELVAAITSSGTSTYYADSVKGRFTISRDYAKNTVYLQMNSLKPEDTAVYYCARVVRPTDGDYWGLGTQVTVSS,high polyreactivity
11,QVQLVESGGGIVQAGGSLRLSCAASGIIFWDNAMGWYRQAPGKERELVASINYSGGSTYYADSVKGRFTISRDNAKNTVYLQMNSLKPEDTAVYYCAARTVTLDDWDYAYDYWGQGTQVTVSS,low polyreactivity
12,QVQLVESGGGLVQAGGSLRLSCAASGSTFYVYAMGWYRQAPGKERELVASITRGGGTYADSVKGRFTISRDNAKNTVYLQMNSQKPEDTAVYYCNARWQRSTGGRQRYDYWGQGTQVSVSS,high polyreactivity
13,QVQLVESGGGLVQAGGSLRLSCAASGFIFDGYTMGWYRQAPGKERELVAAISRSGGRTYYADSVKGRFTISRDNAKNTVYLQMNSLKPEDTAVYYCAVRYRQYSQTVASDYGYWGQGTQVTLSS,high polyreactivity
14,QVQLVESGGGLVQAGGSLRLSCAASGSTIPDNTMGWYRQAPGKEREFVAAISRIGGTYYADSVKGRFTISRDNAKNYVYLQMNSLKPEDTAVYDCNAYPQGLSGRYHGFDYWGQGTQVTVST,low polyreactivity
15,QVQLVESGGGLVQAGGSLRLSCAASGIIFRSYAMGWYRQAPGKERELVAGISLSGGSTYYADSVKGRFTISRDNAKNTVYLQMNSLKPEDTAVYYCATRNHYFRALRYGYWGQGTQVTVSS,high polyreactivity
16,QVQLVESGGGLVQAGGSLRLSCAASGSTFAAYAMGWYRQAPGKERELVAAISATGGSTYYADSVKGRFTISRDNAKNTVYLQMNRLKPEDTAVYYCAADYPSWYGYRYYYWGQGTQVTVSS,high polyreactivity
17,QVQLVESGGGLVQAGGSLRLSCAASGRIFRYYAMGWYRQAPGKERELVATIDWSVGSTYYADSVKGRFTISRDNAKNTVYLQMNSLKPEDTAVYYCAKRGPQVWTFDYDSSGQGTQVTVSS,low polyreactivity
18,QVQLVESGGGLVQAGGSLRLSCAASGLTFRRYAMGWYRQAPGKERELVAAINSRGGSTYYADSVKGRFTISRDNAKNTVYLQMNSLKPEDTAVYYCATRSFGRMDYWGQGTQVTVSS,high polyreactivity
19,QVQLVESGGGLVQAGGSLRLSSAASGRTFPIYAMGWYRQAPGKERELVATITLNDGNTYYADSVKGRFTISRDNAKNTVYLQMNSLKPEDTAVYYCAAKGGWPWHYHYQKNSEYDYWGQGTQVTVSS,low polyreactivity
20,QVQLVESGGGLVQAGGRLRLSCAASGSIFRRYAMGWYRQAPGKERELVAAISSKGGSTYYADSVKGRFTISRDNAKNTVYLQMNSLKPEDTAVYYCNAQLVHYRFSSVFTYTIDDYWGQGTQVTVSS,high polyreactivity
21,QVQLVESGGGLVQAGGSLRLSCAASGSIFAANAMGWYRQAPGKERELVADITRGDGTNYADSVKGRFTISRDNAKNTVYLQMNSLKPEDTAVYYCAAEPSQRYPWSGYDYWGQGTQVTVSS,low polyreactivity
22,QVQLVESGGGLVQAGGSLRLSCAASGLIIWLYTMGWYRQAPGKERELVAAIDWSGGSTYYADSVKGRFTISRDNAKNTVYLQMNSLKPEYTAVYYCAADPEPSYRFDYWGQGTQVTVSS,low polyreactivity

row,Sequence,polyreactivity (PSR sort gate)
1,QVQLVESGGGLVQAGGSLRLSCAASGLTFEKYSMGWYRQAPGKERELVAAISQDGGSTYYADSVKGRFTISRDNAKNTVYLQMNSVKPEDTAVYYCAAEDPDSWLPWDLFDYWGQGTQVTVSS,low polyreactivity
2,QVQLVESGGGLVQAGGSLRLSCAASGLIFFYYTMGWYRQAPGKERELVAAISQSGGRTYYADSVKGRFTISRDNAKNTVYLQMNSLKPEDTAVYYCAAAVRYRGDEFDYWGQGTQVTVSS,low polyreactivity
3,PVQLVESGGGLVQAGGSLRLSCAGSGFTFYTNTMGWYIQAPGKERELVAAISSGGSTYADSVKVRYTISRDNAKNTVDLQMNSLKPEDTAVYYCARDFYYSLSGFDYWGQGTQVTVSS,low polyreactivity
4,QVQLVESGGGLVQAGGSLRLSCAASGFIFLGNVMGWYRQAPGKERELVAAINWSDGSTYYADSVKGRFTISRDNAKNTVYLQMNSLKPEDTAVYYCNVDAGVEGGTVDYWGQGTQVTVSS,low polyreactivity
5,QVQLVESGGGLVQAGGSLRLSCAASGFTFRDYAMGWYRPAPGKERELVAAITRSGGRTYYADSVKGRFTISRDNAKNTVYLQMNSLKPEDTAVYYCAAQLPYYGYDYWGQGTQVTVSS,low polyreactivity
6,QVQLVESGGGLVQAGGSLRLSCAASGRIFLGNAMGWYRQAPGKERELVDAITYSGRSTYYADSVKGRFTISRDNAKNTVYLQMNSLKPEDTAVYYCAARQYWTTDLPFQRYYYWGQGTHVTVSS,low polyreactivity
7,QVQLVESVRGLVQAGGSLRLICDASGRTFPRYAKGWNRQAPGKEWEFVAAIRYSGDNTYYADSVKGRFTISRDNAKNTVYLQMNSLKPEDTAVYYCAARTYGNYRYSTYYYWGQGTQVTVSS,high polyreactivity
8,QVQLVETGGGLVQAGGSLRLSCAASGFILSLYAMGWYRQAPGKERELVAAISRSGASTSYADSVKGRFTISRDNAKNSVYLQMNSLKPEDTAVYYCNVRRWPYSPGYDYWGQGTQVTVSS,high polyreactivity
9,QVQLVESGGGLVQAGGSLRLSCAASGIIFISNAMGWSRQAPGTERELVADITSGGGSTYYADSVKGRFTISRDNAKNTVDLQMNSLKPDDTAVYYGAKRATGAYVFFFDSWGQGTQVTVSS,low polyreactivity
10,QVHLVESGGGLVQAGGSLRLSCAASGRTFIYYAMGWYRQAPGKERELVASITTGGRTYYADSVKGRFTISRDNAKNTVYLQMNSLKPEDSAVYYCAAEPHFFWYYHYVYGEHDYWGQGTQVTVSS,high polyreactivity
11,QVQLVESGGGLVQAGGSLRLSCAASGRIFRWNAMGWYRQAPGKERELVAAISSSGGRTYYADSVKGRFTISRDTAKNTVYLQMNSLKPEDTAVYYCAAYPFSDEYDYWGQGTQVTVSS,high polyreactivity
12,QVQLVESGGGLVQAGGSLRLSCAASGFTFWDYTMGWYRQAPAKERELVAAINRGGNTYYADSVKGRFTISRDNAKNTVYLQMNSLKPEDSADYYCAARRRSRQYRYDYWGQGTQVTVSS,high polyreactivity
13,QGQLVESGGGLVQAGGSLRLSCAASGRIFTYYAMGWYRQAPGKERELVAAISWSGGSTYYADSVKGRFTISRDNAKNTVYLQMNSLKPEDTAVYYCAAVGYAGLPYGLRPNNSGYWGQGTQVTVSS,low polyreactivity
14,QVQLVESGGGLVQAGGSLRLSCAAYGIIFRRNAMGWYRQAPGKERELVAAISWSGGTTYYADSVKGRFTISRDNAKYTVYLQIISLKPEDTAVYYCAAGLISRPYGYDYWGQCTQVTVSS,high polyreactivity
15,QVQLVESGGGLVQAGGSLRLSCAASGRTFDSNTMGWYRQAPGKERELVAAITGSGGRTYYADSVKGRFTISRDNAKNSVYLQMNSLKPEDTAVYYCAARPYFYERSAGYYWGQGTQVTVSS,high polyreactivity
16,QVQLVESGGGLVQAGGSLRLSCAASGRIFGRYAMGWYRQAPGQERELVAGISARGGSTYYADSVKGRFTISRDNAKNTVYLQMNSLKPDDTAVYYCAAYAGFSDQAGYFYWGQGTQVTVSS,high polyreactivity
17,QVQLVESGGGLVQAGGSLRLSCAASGINIRYYAMGWYRQAPGKERELVADITTGGTTYYADSVKGRFTISRDNAKNTVYLQMNSLKPEDTAVYYCAAYYFPTYSKTYIYPFDYWGQGTQVTVSS,low polyreactivity
18,QVQLVESGGGLVQAGGSLRLSCAASGRTFSLYTMGWYRQAPGKERELVAAISSGDSTNYADSVKGRFTISRDNAKNTVYLQMNSLKPEDTAVYYCAKQQDSTSEFSTSDRRQYDYWGQGTQVTVSS,low polyreactivity
19,QVQLVESGGGLVQAGGSLRLSCAASGFTVRYYAMGWYRQAPGKERELVAAISWSGGSTYYADSVKGRFTISRDNAKNTVYLQMNSLKPEDTAVYYCNRETSPKVYYPNDYWGQGTQVTVSS,low polyreactivity
20,QVQLVESVGGLVQAGGSLRLSCAASGFTIGYNFMGWYRQAPGKERELVATISWNGARTYYADSVKGRFTISRDNAKNTVYLQMNSLKPEDTAVYYCAARRYYRGEYDYWGQGTQVTVSS,low polyreactivity
21,QVQLVESGGGLVQAGGSLRVSCAASGNTFYYTMGWYLQAPGKERELVATISYDGTSTYYADSVKGRFTISRDNAKNTVYLQKNSLKPEDTAVYYSSAYGTVVTLNDYWGQGTQVTVSS,low polyreactivity
